PMC9910460 (Proceedings of the National Academy of Sciences of the …, 2022)

Biological target: TF-Mec1 1–500aa (Saccharomyces cerevisiae, UniProt P38111 1-500)
Experiment: pull-down

TF-Mec1 1–500aa, sequence (P38111 1-500): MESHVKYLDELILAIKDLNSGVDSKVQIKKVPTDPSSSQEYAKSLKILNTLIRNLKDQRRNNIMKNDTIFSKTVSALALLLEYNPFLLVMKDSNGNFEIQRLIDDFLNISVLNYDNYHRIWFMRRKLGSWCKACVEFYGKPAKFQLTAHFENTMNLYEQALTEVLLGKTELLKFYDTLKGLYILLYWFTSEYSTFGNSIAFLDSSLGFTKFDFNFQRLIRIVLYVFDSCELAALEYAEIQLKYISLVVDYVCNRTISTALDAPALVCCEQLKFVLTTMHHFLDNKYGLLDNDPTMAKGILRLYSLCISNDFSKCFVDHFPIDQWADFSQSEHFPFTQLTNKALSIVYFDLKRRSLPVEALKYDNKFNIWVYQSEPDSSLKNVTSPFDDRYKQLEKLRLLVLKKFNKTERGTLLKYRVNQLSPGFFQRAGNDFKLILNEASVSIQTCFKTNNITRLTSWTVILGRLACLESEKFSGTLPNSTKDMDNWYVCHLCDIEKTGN

binding result: binds
B1: GST–Atg13 460–640aa (domain or fragment, Saccharomyces cerevisiae, UniProt Q06628 460-640, looked up)
chain: ESQEDLMDFVKLLEEKPDLTIKKTSGNNPPNINISDSLIRYQNLKPSNDLLSEDLSVSLSMDPNHTYHRGRSDSHSPLPSISPSMHYGSLNSRMSQGANASHLIARGGGNSSTSALNSRRNSLDKSSNKQGMSGLPPIFGGESTSYHHDNKIQKYNQLGVEEDDDDENDRLLNQMGNSATK
